# Laboratory results reported in paper PMC7679444 (2020).
# B1: GST-HA-ATG16L1(231–607) [human] / TMEM59 peptide (residues 268–280), wild type [modified: long spacer (Tds) at the N-terminal end, used for immobilisation; long spacer (Tds) at the N-terminal end, used for immobilisation] [not stated] (parent complex)
# chain 1: PLPVEQDDDIEVIVDETSDHTEETSPVRAISRAATKRLSQPAGGLLDSITNIFGRRSVSSFPVPQDNVDTHPGSGKEVRVPATALCVFDAHDGEVNAVQFSPGSRLLATGGMDRRVKLWEVFGEKCEFKGSLSGSNAGITSIEFDSAGSYLLAASNDFASRIWTVDDYRLRHTLTGHSGKVLSAKFLLDNARIVSGSHDRTLKLWDLRSKVCIKTVFAGSSCNDIVCTEQCVMSGHFDKKIRFWDIRSESIVREMELLGKITALDLNPERTELLSCSRDDLLKVIDLRTNAIKQTFSAPGFKCGSDWTRVVFSPDGSYVAAGSAEGSLYIWSVLTGKVEKVLSKQHSSSINAVAWSPSGSHVVSVDKGCKAVLWAQY
# chain 2: YVPSEKLSIYGDL
# Variants of: B1
# Assay: peptide microarray; 800, 400 nM (n = 6); parent: 100; read off a plot
row,percent of parent,Variant
1,~1 % WT,"chain 2 Y1A, chain 2 E5A, chain 2 Y10A, chain 2 L13A"
